Measured values published in paper PMC9478642.

B1: human T-plastin, full length, wild type [human] / F-actin (filaments of α-actin) [not stated] (parent)
chain 1: MDEMATTQISKDELDELKEAFAKVDLNSNGFICDYELHELFKEANMPLPGYKVREIIQKLMLDGDRNKDGKISFDEFVYIFQEVKSSDIAKTFRKAINRKEGICALGGTSELSSEGTQHSYSEEEKYAFVNWINKALENDPDCRHVIPMNPNTDDLFKAVGDGIVLCKMINLSVPDTIDERAINKKKLTPFIIQENLNLALNSASAIGCHVVNIGAEDLRAGKPHLVLGLLWQIIKIGLFADIELSRNEALAALLRDGETLEELMKLSPEELLLRWANFHLENSGWQKINNFSADIKDSKAYFHLLNQIAPKGQKEGEPRIDINMSGFNETDDLKRAESMLQQADKLGCRQFVTPADVVSGNPKLNLAFVANLFNKYPALTKPENQDIDWTLLEGETREERTFRNWMNSLGVNPHVNHLYADLQDALVILQLYERIKVPVDWSKVNKPPYPKLGANMKKLENCNYAVELGKHPAKFSLVGIGGQDLNDGNQTLTLALVWQLMRRYTLNVLEDLGDGQKANDDIIVNWVNRTLSEAGKSTSIQSFKDKTISSSLAVVDLIDAIQPGCINYDLVKSGNLTEDDKHNNAKYAVSMARRIGARVYALPEDLVEVKPKMVMTVFACLMGRGMKRV
chain 2: not shown

Variants of: B1
Assay: sequential low-speed/high-speed F-actin cosedimentation assay
Details: with F-actin (filaments of α-actin); 5 μM actin, 2 μM plastin; read off a plot; scale: proportion of T-plastin in low-speed pellet

| response | Variant |
| --- | --- |
| 0.04 | chain 1 F191A |

Same assay, conditions: with F-actin (filaments of α-actin); 5 μM actin, 2 μM plastin; read off a plot; scale: proportion of T-plastin in low-speed plus high-speed pellet

| response | Variant |
| --- | --- |
| 0.42 | chain 1 F191A |
